# Assay results as given in publication PMC9079729, “Conservation of the conformational dynamics and ligand binding within M49 enzyme family” (RSC Advances, 2018).
# What was measured:
# Assay in all cases: Km for hydrolysis of fluorogenic substrate Arg2-2NA
# [1] = substrate: N=C(N)NCCC[C@H](NC(=O)[C@@H](N)CCCNC(=N)N)C(=O)Nc1ccc2ccccc2c1; format: biochemical; conditions: other: pH 7.4 (20 mM Tris–HCl buffer), 25 °C, initial reaction rates
# Experimental: (§1) The Km values for hydrolysis of fluorogenic substrate Arg2-2NA were determined at pH 7.4 (20 mM Tris–HCl buffer) and at 25 °C, from the initial reaction rates as previously described.[26]
# [2] = substrate: N=C(N)NCCC[C@H](NC(=O)[C@@H](N)CCCNC(=N)N)C(=O)Nc1ccc2ccccc2c1; format: biochemical, yeast (Saccharomyces cerevisiae); conditions: other: pH 7.4 (20 mM Tris–HCl buffer), 25 °C, initial reaction rates, yeast DPP III
# Experimental: as §1
# [3] = substrate: N=C(N)NCCC[C@H](NC(=O)[C@@H](N)CCCNC(=N)N)C(=O)Nc1ccc2ccccc2c1; format: biochemical, Bacteroides thetaiotaomicron; conditions: other: pH 7.4 (20 mM Tris–HCl buffer), 25 °C, initial reaction rates, B. thetaiotaomicron DPP III
# Experimental: as §1
protein,measurement,setting,value
human DPP III (Homo sapiens) (protein) ADTQYILPNDIGVSSLDCREAFRLLSPTERLYAYHLSRAAWYGGLAVLLQTSPEAPYIYALLSRLFRAQDPDQLRQHALAEGLTEEEYQAFLVYAAGVYSNMGNYKSFGDTKFVPNLPKEKLERVILGSEAAQQHPEEVRGLWQTCGELMFSLEPRLRHLGLGKEGITTYFSGNCTMEDAKLAQDFLDSQNLSAYNTRLFKEVDGEGKPYYEVRLASVLGSEPSLDSEVTSKLKSYEFRGSPFQVTRGDYAPILQKVVEQLEKAKAYAANSHQGQMLAQYIESFTQGSIEAHKRGSRFWIQDKGPIVESYIGFIESYRDPFGSRGEFEGFVAVVNKAMSAKFERLVASAEQLLKELPWPPTFEKDKFLTPDFTSLDVLTFAGSGIPAGINIPNYDDLRQTEGFKNVSLGNVLAVAYATQREKLTFLEEDDKDLYILWKGPSFDVQVGLHELLGHGSGKLFVQDEKGAFNFDQETVINPETGEQIQSWYRSGETWDSKFSTIASSYEECRAESVGLYLCLHPQVLEIFGFEGADAEDVIYVNWLNMVRAGLLALEFYTPEAFNWRQAHMQARFVILRVLLEAGEGLVTITPTTGSDGRPDARVRLDRSKIRSVGKPALERFLRRLQVLKSTGDVAGGRALYEGYATVTDAPPECFLTLRDTVLLRKESRKLIVQPNTRLEGSDVQLLEYEASAAGLIRSFSERFPEDGPELEEILTQLATADARFWKGPSEAPSGQA,Km,[1]; human DPP III,6.0 µM
Physcomitrella patens DPP III (Physcomitrium patens) (protein) MEGFQEEFSLGECLDVLTAAGLRTGDVKKRHLVHADGDYHRAVHVWLFVESTQELVLQKRADCKDSWPGLWDISSAGHISAGDTSLLTARRELQEELGITLPADAFEFLFDYLQECVINGGKYINNEYNDVYLVTLVDHIPVEAFTLQETEVSAVKYMKWQDYEDAVRKEDSSYVPCDVDGGYSALFSALRRRYEVDTSAKLEELQMHINRYVPVEIHGETTGLSKGDLLALSDTIRAAKLLDRIFLEQEWATNPALKDSLQAASGKSELDRLKFAYYLINKSPWSILDENDAFLTTADSAIQIAEGAVDESVTWGGKVRYRAAFPVEKAPGANFYPVDMDKEEFQAWKDGLDKGQQADATSFFTTIRRSGDIHDADGAKVHDLKIVPYSKEYATILKEASYLLHKAGDSAENPSLKRLLKAKADAFLSNDYYESDIAWMELDSPLDVTIGPYETYEDGLFGYKATFEAFIGIRDDEATQRLKLFSHNLQEMEDNLPMDDEYKSKTVTFSPIRVIQLLYNSGDVKGPQTVAFNLPNDDRIVKERGTAMVMLKNISQAKFDYILLPIANVCVEASQRGAVDFDSFFTHTICHECCHGIGPHNIVTPDGRASTVRLELQEVYSAIEEAKADIVGLWALHFLVDKGLLPRSLENTMYVSFLAGCFRSIRFGLEEAHGKGQALQFNFILEKGGFSYHPDGTFSVDYTKVRQCVEDLSRLILTIEAKGDKAGAEALLAKYAALTPQLQQSFDALQDVQVPVDIFPTFKLLDDIKL,Km,[1]; Physcomitrella patens DPP III,23.8 µM
Caldithrix abyssi DPP III (Caldithrix abyssi DSM 13497) (protein) MKRILLVLLTLVFLGAIACQKKEENKTEMVKLKRMIAQFAPTEIKYDHSLLDERKQKVVENLYRAAKIMDEIFLDQVYSKNFEIREQLRASSDPLDQLRLEYFTIMFGPFDRLNHDKPFIGNTPKPKGANFYPPDMTREEFENWLKAHPEDEAAFTSEFTVIRRQDGKLVAIPYSEYYKEYLTRAADYLKKAAEFADNPSLKKYLQLRAEAFLNNDYYESDLAWMDLNDHTIEVVIGPYEVYEDKLFNYKAAFEAFITLRDPVESAKLKKFVGYLDEMEKNLPIPDAYKNFNRGSESPMVVVQEVFSAGDTKAGVQTLAFNLPNDERVREAKGSKKVMLKNIHEAKFDKLLKPIAEKVLFAEQLPLVTFEGFFNHTLMHEISHGLGPGKIVLNGRQTEVKKELKETYSSIEECKADVLGMYNNLFMIEKGVYPPEFEKQIYVTFLAGIFRTIRFGINEAHGAGNAVIFNYLLEKGAYQFDPAAHRVKVNFEKIKDGVRDLANKVLTIQAQGDYMAAKNLLETYAVESEPIMIMRARLQELPVDIKPIFQIEKELGNSN,Km,[1]; Caldithrix abyssi DPP III,15.9 µM
Porphyromonas gingivalis DPP III (Porphyromonas gingivalis W83) (protein) MTKETTQHRSGERIARFADIEVLSYRADLFGTLTPKQRMLCYHLSEAALRGRDITTIQNCRYNLWVRSLMERIYTHLSKSERTDDFALLEEYLFCIWFANGIHHHYSGAKFIARFSPGFLRAALREAGVELEPEEQVLLERVLYDTDFLPKQTEQSGEEDIIKASSVNFYAPGITRAEAESHYKNLIEALPENEKSCPPSFGLNTRLIRSTSGELKDEVCCIDGLYGPAIEAVVASLEAAIPYTENEEQAACIRLLCDYYRTGDIRLYDRFCIRWVENNRTRIDFINGFTEVYADPIGIHGSWEGLVHMQDEEAGRRTRIISEHAGWFEAHSPIDARFRKKNPHGISATVVNVLTIAGDSYPATPIGINLPNADWIRAEHGSKSVTIDNITDAYNHAARGTGLYEEFIPDEEVRRHVELHADLTDSLHTDLHECLGHGSGQLLPGVPGDALGEHASTLEETRADLFALYFLADPKMIELGLLTDPDAYKANYYKYMLNGLMTQLVRIKRGEEIEEAHMRNRALIARYVLEHAERPGAMSLVCEEGKTALVIKDYEAVRAIIAGLLTEVQRIKSEGDYTAGKALVERYAVHVDPLLHEEVLTRYAKLDIAPYKGFVNPRLRPVYNSEGRLTDATIEYTEGYAEQMLRYSAEYSFLPTDSPLLQEARRLRSHLRRAMDGVLSASMREKGLHYGINFGVTREHLLRLARTADASAPLADYLWRRDVRETKILATMIFPAEELTHEQATRLLREADNVELREQLTANLLERMPEAIRSIGRWIESKETTPDMMTGVLTLAARLFTRGIFPEDVPAEKLLTLAILHLSDEEQKAELRRASALLLKRYGRGSAERTKKVLCLLPESSQDTAPVLYELCEDIRFELDFYPKDE,Km,[1]; Porphyromonas gingivalis DPP III,0.3 µM
yeast DPP III (Saccharomyces cerevisiae S288C) (protein) MSHFFADHDAPLSMLSVKTEYFPQLTDKEQKYAHFMSKASHAGSRVVMRQVSHESEPIFDLILAIHSKLNGKYPEDDITQKQQTGLYLEYVSQFLSNLGNFKSFGDTKFIPRCEVKFFKQLLELAKINPCSSPLTLSPVDVNHEFTSHHLFSTINELIDIGIYHVEEKAALLGFPSQGYTSAYYLGLPVTPEDMALLKEQLFAELAILPENTRINKVGENSFQIWVASENVKNQITETYPSGQITLSNAVTKVEFIFGDHSREMRLVASYLKEAQKFAANDTQKAMLQEYINHFVTGSSQAHKEAQKLWVKDISPVIETNIGFIETYREPSGIIGEFESLVAIQNKERTAKFSSLVNNAEEFISLLPWSKDYEKPIFNPPDFTSLEVLTFTGSGIPAGINIPNYDDVRLKIGFKNVSLGNILSAAAKSSSKHPPSFISQEDRPIFEKYQSDSFEVQVGIHELLGHGSGKLLTEFTDGFNFDKENPPLGLDGKPVSTYYKVGETWGSKFGQLAGPFEECRAEVIAMFLLTNKKILDIFGFHDVESQDKVIYAGYLQMARAGLLALEYWNPKTGKWGQPHMQARFSIMKTFMKHSTDKNFLKLEMNSTNDDFAIKLDKSLIKTAGHECVKDYLKHLHVYKCSGDVEQGSKYFIDRSTVTPDLASLRDIVLSKRLPRRQFIQSNSYIDDNNKVTLKEYDETPQGMLQSFLDREL,Km,[2],12 µM
B. thetaiotaomicron DPP III (Bacteroides thetaiotaomicron VPI-5482) (protein) MAVTATILASCGGAKTTTAEADKFDYTVEQFADLQILRYKVPEFETLTLKQKELVYYLTQAALEGRDILFDQNGKYNLRIRRMLEAVYTNYKGDKSAPDFKNMEVYLKRVWFSNGIHHHYGMEKFVPGFSQDFLKQAVLGTDAQLLPLSEGQTAEQLCDELFPVMFDPAILAKRVNQADGEDLVLTSACNYYDGVTQQEAESFYGAMKDPKDETPVSYGLNSRLVKEDGKIQEKVWKVGGLYTQAIEKIVYWLKKAETVAENDAQKAVISKLIQFYETGSLKDFDEYAILWVKDLDSRIDFVNGFTESYGDPLGVKASWESLVNFKDLDATHRTEIISSNAQWFEDHSPVDKSFKKEKVKGVSAKVITAAILAGDLYPATAIGINLPNANWIRAHHGSKSVTIGNITDAYNKAAHGNGFNEEFVCNDEERQRIDQYGDLTGELHTDLHECLGHGSGKLLPGVDPDALKAYGSTIEEARADLFGLYYVADPKLVELKLVPDAEAYKAEYYTFLMNGLMTQLVRIEPGNNIEEAHMRNRQLIARWVFEKGAPDKVVEMVKKDGKTYVVVNDYEKVRQLFGELLAEIQRIKSTGDFEGARTLVENYAVKVDPALHAEVLARYKKLNLAPYKGFINPVYELVTDKDGNITDVTVSYNEDYVEQMLRYSKDYSPLPSVNN,Km,[3],0.8 µM
